From patent US20090081219A1 (Genmab, published 2009)

T1: recombinant human CD25 (rhCD25), NS/0-expressed recombinant protein from R&D Systems (cat#223-2A/CF) (human, UniProt P01589 22-213, limits assumed)
T1 construct: Coated on ELISA plates, and amine-coupled to a CM-5 chip for SPR; also called hrCD25; soluble CD25
T1 sequence (looked up): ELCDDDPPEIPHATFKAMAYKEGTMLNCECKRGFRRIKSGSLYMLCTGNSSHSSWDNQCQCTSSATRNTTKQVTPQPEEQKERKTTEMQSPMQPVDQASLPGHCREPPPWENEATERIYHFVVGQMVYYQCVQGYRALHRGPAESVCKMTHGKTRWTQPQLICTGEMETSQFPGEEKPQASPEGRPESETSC


Experiments:
[1] = molecular target: T1, recombinant human CD25 (rhCD25), …; assay: competition ELISA on coated rhCD25 (100 ng/ml); antibody supernatant added 10 min before rIL-2-biotin (50 ng/ml); streptavidin-poly-HRP/ABTS, OD405; blocked ligand: biotinylated IL-2
Procedure: After washing (3×) the plates with PBST, 100 μl of sample antibody (concentration range: 10, 33, and 100 ng/ml) was added. […] After washing the plates 3× (in PBST), plates were incubated with streptavidin-poly-HRP (dilute 1:10,000 from stock) in PBS, and 100 μl was added to each well (1 hour, RT). After washing the plates (3× in PBST), 10 mg ABTS (Roche) per 10 ml ABTS buffer (Roche) was made and 100 μl added to each well.

[2] = molecular target: T1, recombinant human CD25 (rhCD25), …; assay: SPR, BIAcore 3000, 25 C; rhCD25 amine-coupled to CM-5 chip at low density, antibody as analyte, 1:1 Langmuir model
Procedure: Affinity analyses were assessed by monitoring changes in surface plasmon resonance using a BIAcore 3000 instrument. A BIAcore 3000 and BIAcore 3000 software control (BIAcore, Uppsala, Sweden, lot#BR-1100-43) was used. […] After blocking the residual binding sites of the activated sensor chip using ethanol-amine-HCl, a kinetic analysis was performed at 25° C. […] The results were visualized using a BIAcore 3000 (Bio-tek Instruments) and analyzed using the BIAevaluation Software 3.1 (BIAcore, Uppsala, Sweden) and Languir binding 1:1 was used as pre-fixed model.

| Binder | binding result [1] | Kd [2] [nM] |
| --- | --- | --- |
| human monoclonal antibody AB1 (antibody, human IgG1, V domains shown, Human IgG1,kappa from a hybridoma (HuMAb mouse)) VH: QVQLVQSGAEVKKPGSSVKVSCKASGGTFSRYPINWVRQAPGQGLEWMGRIIPILGIADYAQRFQGRVTITADKSTNTAYMELSSLRSEDTAVYYCARRDWGDYWGQGTLVTVSS VL: not shown | binds | – |
| human monoclonal antibody AB7 (antibody, V domains shown, Human IgG1,kappa from a hybridoma (HuMAb mouse)) VH: QVQLVQSGAEVKKPGSSVKVSCKASGGTFSRYAINWVRQAPGQGLEWMGRIIPILDIADYAQKFQDRVTITADKSTNTAYMELSSLRSEDTAVYYCARKDWFDPWGQGTLVTVSS VL: not shown | binds | – |
| human monoclonal antibody AB12 (antibody, V domains shown, Human IgG1,kappa from a hybridoma (HuMAb mouse); also called AB12-FITC; FITC-labeled AB12) VH: QVQLVQSGAEVKKPGSSVKVSCKASGGTFSRYIINWVRQAPGQGLEWMGRIIPILGVENYAQKFQGRVTITADKSTSTAYMELSSLRSEDTAVYYCARKDWFDYWGQGTLVTVSS VL: not shown | – | 0.0474 |
| human monoclonal antibody AB11 (antibody, human IgG1, V domains shown, Human IgG1,kappa from a hybridoma (HuMAb mouse)) VH: QVQLVQSGAEVKKPGSSVKVSCKASGGTFSRYPINWVRQAPGQGLEWMGRIIPILGIADYAQRFQGRVTITADKFTNTAYMELSSLRSEDTAVYYCARRDWGDYWGQGTLVTVSS VL: not shown | binds | – |
